Laboratory results published in patent US20250002557A1.
Read-outs that look alike come from different tables or passages of the source.

Tests used:
VEGF-A165 [1] = molecular target: VEGF-A165 (UniProt P15692); test: blocking ELISA, VEGF-A 165-His to coated VEGFR2-Fc; row head prints uM, paragraph 129 and ng/ml row give nM
PIGF [2] = molecular target: T1, PIGF (UniProt P49763); test: ELISA, PlGF coated, anti-human Fc-HRP, OD450
T1 sequence (looked up): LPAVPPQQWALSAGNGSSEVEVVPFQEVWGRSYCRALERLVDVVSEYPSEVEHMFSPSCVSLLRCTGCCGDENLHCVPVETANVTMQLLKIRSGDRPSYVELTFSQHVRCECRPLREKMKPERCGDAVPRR

PIGF [3] = molecular target: T1, PIGF; test: ELISA, PlGF coated, anti-human Fc-HRP, OD450; remark: listed apart in the source
VEGF-B [4] = molecular target: T2, VEGF-B (UniProt P49765); test: ELISA, VEGF-B coated, anti-human Fc-HRP, OD450
T2 sequence (looked up): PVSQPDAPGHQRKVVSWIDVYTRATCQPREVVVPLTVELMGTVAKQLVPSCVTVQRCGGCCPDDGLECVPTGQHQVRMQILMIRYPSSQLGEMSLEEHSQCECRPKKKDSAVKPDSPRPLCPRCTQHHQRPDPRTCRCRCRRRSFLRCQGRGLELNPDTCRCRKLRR

VEGF-A165 [5] = molecular target: VEGF-A165 (UniProt P15692); test: blocking ELISA, VEGF-A165 to VEGFR2 (Example 13)
VEGF-A165 [6] = molecular target: VEGF-A165 (UniProt P15692); test: blocking ELISA: His-VEGF-A165 premixed with sample, binding to coated VEGFR2-Fc read with anti-His-HRP
VEGF-A165 [7] = molecular target: VEGF-A165 (UniProt P15692); test: blocking ELISA, VEGF-A 165-His to coated VEGFR2-Fc
VEGF-B [8] = molecular target: T2, VEGF-B; test: ELISA, VEGF-B coated, anti-human Fc-HRP, OD450; remark: listed apart in the source
VEGF-A165 [9] = molecular target: VEGF-A165 (UniProt P15692); test: blocking ELISA, VEGF-A165 to VEGFR1 (Example 13)
VEGF-A165 [10] = molecular target: VEGF-A165 (UniProt P15692); test: blocking ELISA, VEGF A165 to VEGFR1 (Example 16)
VEGF-A165 [11] = molecular target: VEGF-A165 (UniProt P15692); test: ELISA binding to VEGF-A165, absorbance 450 nm
VEGF-B [12] = molecular target: T2, VEGF-B; test: ELISA, VEGF-B coated, anti-human Fc-HRP, OD450; remark: listed apart in the source
VEGF-A165 [13] = molecular target: VEGF-A165 (UniProt P15692); test: blocking ELISA, VEGF A165 to VEGFR2 (Example 16)
PIGF [14] = molecular target: T1, PIGF; test: ELISA, PlGF coated, anti-human Fc-HRP, OD450; remark: listed apart in the source

Sequence of Eylea (Fc fusion) (chain): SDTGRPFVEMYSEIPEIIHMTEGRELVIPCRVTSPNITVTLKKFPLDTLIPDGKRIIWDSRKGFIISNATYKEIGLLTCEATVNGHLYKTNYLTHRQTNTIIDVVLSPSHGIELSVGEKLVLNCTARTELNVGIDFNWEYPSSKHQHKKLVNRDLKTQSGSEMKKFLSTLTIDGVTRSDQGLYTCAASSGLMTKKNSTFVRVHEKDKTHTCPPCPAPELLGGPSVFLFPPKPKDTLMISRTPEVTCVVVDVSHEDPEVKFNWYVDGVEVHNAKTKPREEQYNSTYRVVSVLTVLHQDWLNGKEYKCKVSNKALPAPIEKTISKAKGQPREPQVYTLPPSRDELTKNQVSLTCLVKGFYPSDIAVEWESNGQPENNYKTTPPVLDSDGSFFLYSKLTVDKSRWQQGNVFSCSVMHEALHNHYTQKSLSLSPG
Sequence of VEGF-A165 (P15692 other isoform, or with tags, fused parts or gaps limits assumed): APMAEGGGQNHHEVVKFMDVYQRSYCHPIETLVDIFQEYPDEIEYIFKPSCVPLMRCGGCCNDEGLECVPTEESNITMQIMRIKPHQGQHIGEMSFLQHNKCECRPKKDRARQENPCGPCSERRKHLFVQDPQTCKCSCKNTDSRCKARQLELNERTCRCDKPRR

EC50 (VEGF-A165 [1]): 3200 nM | EC50 (PIGF [2]): 0.17 nM | EC50 (PIGF [3]): 0.1 nM | EC50 (VEGF-B [4]): 0.64 nM | EC50 (VEGF-A165 [5]): 2.23 nM | EC50 (VEGF-A165 [6]): 1.7 nM | EC50 (VEGF-A165 [7]): 0.32 µg/mL | EC50 (VEGF-B [8]): 1.07 nM | EC50 (VEGF-A165 [9]): 4.64 nM | EC50 (VEGF-A165 [10]): 6.96 nM | EC50 (VEGF-A165 [11]): 0.138 nM | EC50 (VEGF-B [12]): 0.94 nM | EC50 (VEGF-A165 [13]): 3.94 nM | EC50 (PIGF [14]): 0.223 nM
Substance: Eylea (Fc fusion)
